Measured values taken from publication doi:10.1101/490516, “Molecular mechanism of the Orai channel activation” (bioRxiv, 2018).

Molecular target: the molecule itself
Assay: crystal structure; 4.5 Å, molecular replacement with the closed Orai structure 4HKR; protein in NG/NM with POPC:POPE:POPG; sitting drop, 0.05 M NaCl, 0.02 M MgCl2, 0.1 M sodium citrate pH 6.5, 16%-20% PEG400, 17 °C

B1: dOrai-P288L channel (Drosophila melanogaster Orai, amino acids 132-341, C224S, C283T, P288L) (domain or fragment, UniProt Q9U6B8 132-341, looked up)
chain: SMSQSGEDLHSPTYLSWRKLQLSRAKLKASSKTSALLSGFAMVAMVEVQLDHDTNVPPGMLIAFAICTTLLVAVHMLALMISTCILPNIETVSNLHSISLVHESPHERLHWYIETAWAFSTLLGLILFLLEIAILCWVKFYDLSPPAAWSATVVLILVMIIFMAFAIHFYRSLVSHKYEVTVSGIRELEMLKEQMEQDHLEHHNNIRNNG
notes: Orai, Drosophila melanogaster, Uniprot Q9U6B8, amino acid residues 132-341 with C224S, C283T and P288L; codons optimized for Homo sapiens; pEG-BacMam vector; PreScission site and eGFP at the C-terminus, eGFP cleaved by 3C protease on the Ni-NTA beads; No His tag is described, though Ni-NTA beads were used; it probably left with the eGFP; also called dOrai1-P288L; open Orai channel; source: …
- stoichiometry N: 6
